This is an account of results in US12466853B2, “Selective targeting of apoptosis proteins by structurally-stabilized and/or cysteine-reactive NOXA peptides” (priority 2017, dated 2025).

For one data set, the target named is T1, FLAG-MCL-1 / tBID (Homo sapiens, UniProt Q07820).
T1 construct: expressed in transfected cells; host or cells: 293T (lysate)
As to the kind of experiment: MCL-1/tBID complex disruption in 293T lysates. Particulars: FLAG immunoprecipitation. The format is binding. On the procedure: To evaluate the capacity of biotinylated SAHBs to compete with tBID for interactions with BFL-1 and MCL-1, 293T cells were transfected with either HA-BFL-1ΔC C4S/C19S or FLAG-MCL-1 in the p3XFLAG-CMV-10 vector (Sigma) as above. After 24 hr, cells were trypsinized, washed with PBS, lysed in 1% CHAPS buffer, and the supernatant collected for protein concentration determination by BCA kit. Lysate samples (0.5 mg) were incubated with 0.25 μM recombinant tBID (R&D Systems) and 5 μM biotinylated NOXA SAHBs for 6 h at RT. The mixtures were then subjected to HA or FLAG immunoprecipitation, followed by western analysis using 1:1000 dilutions of HA (Sigma Aldrich, #12CA5), FLAG (Sigma-Aldrich, F7425), and BID (Santa Cruz sc-11423) antibodies.

The target in data set [1] is T2, BFL-1ΔC C4S/C19S/C55S / FITC-BID BH3 (Homo sapiens, UniProt Q16548, C19S/C4S/C55S).
T2 construct: Recombinant anti-apoptotic BFL-1ΔC (aa 1-151) and its cysteine to serine mutants were cloned into PET17b; hexahistidine (N); made in house; host or cells: Escherichia coli LOBSTR BL21(DE3)
T2 sequence (Q16548 1-151 C4S/C19S/C55S): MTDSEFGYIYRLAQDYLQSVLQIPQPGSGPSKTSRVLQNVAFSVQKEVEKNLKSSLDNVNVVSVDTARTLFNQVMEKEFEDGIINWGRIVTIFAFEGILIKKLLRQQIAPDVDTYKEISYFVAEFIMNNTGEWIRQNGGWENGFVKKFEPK
Kind of data set: Competitive fluorescence polarization binding assay, BFL-1ΔC C4S/C19S/C55S. On the procedure:
(§1) Fluorescence polarization (FP) assays were performed as previously described (Pitter et al., 2008 (supra)). Briefly, direct binding curves were first generated by FITC-BID BH3 (25 nM) with serial dilutions of anti-apoptotic protein, and FP was measured at 5 min on a SpectraMax M5 microplate reader (Molecular Devices). For competition assays, a serial dilution of acetylated or warhead-bearing NOXA SAHB was added to the indicated recombinant protein at ˜EC75 concentration, as determined by the direct binding assay. FITC-BID BH3 (25 nM) was then added and fluorescence polarization was measured at equilibrium. IC50 values were calculated by nonlinear regression analysis of competitive binding curves using PRISM software (GraphPad).
Background: In fluorescence polarisation assays a small probe gives low polarisation when free and higher when bound to something large.

A further data set deals with T3, BCL-XLΔC / FITC-BID BH3 (Homo sapiens, UniProt Q07817).
T3 construct: Recombinant anti-apoptotic BCL-XLΔC (aa 1-212) and MCL-1ΔNΔC (aa 172-329); GST (N, cleaved yes); made in house; host or cells: Escherichia coli BL21(DE3)
Kind of data set: Competitive fluorescence polarization binding assay, BCL-XLΔC. The protocol: as §1

Another data set deals with MV4;11 cells. As to the kind of experiment: Cell viability (CellTiter-Glo) and CalcuSyn synergy, MV4;11. As to conditions: MV4;11 cells (not dependent on BFL-1, dependent on MCL-1). On the procedure: (§2) Cell viability and caspase-3/7 activation was measured using CellTiter-Glo and Caspase-Glo 3/7 chemiluminescence reagents (Promega), respectively, and luminescence was detected by a Spectramax M5 microplate reader. Synergy of drug interactions was calculated using the CalcuSyn software (Biosoft).

Data set [2] deals with U937 cells. Kind of data set: Cell viability (CellTiter-Glo) and CalcuSyn synergy, U937. As to conditions: U937 cells (BFL-1-dependent). The protocol: as §2
The subject of data set [3] is U937 cells. As to the kind of experiment: LDH release assay, U937 cells. The format is cell-based, human. As to conditions: 30 min and 4 hr, listed as D-NA-NOXA SAHB-15 R31E. The protocol:
After overnight incubation for A375P cells, or immediately upon plating for U937 cells, the cells were treated with the indicated concentrations of D-NA-NOXA SAHBs in DMEM or RPMI supplemented with 5% FBS for the indicated time period (30 min, 4 h). After plate centrifugation at 1,500 rpm (Thermo Scientific Sorvall Four-Place Swinging Bucket Rotor [75006445]; 478×g) for 5 min at 4° C., LDH release was quantified by transferring 100 μL of cell-culture medium to a clear plate (Corning), incubating with 100 μL of LDH reagent (Roche) for 30 min while shaking, and then measuring absorbance at 490 nm on a microplate reader (Spectramax M5, Molecular Devices).
(In general: LDH in the medium is a marker of cell lysis.)

A further data set has as its system KG-1 cells. As to the kind of experiment: Cell viability (CellTiter-Glo) and CalcuSyn synergy, KG-1. The format is cell-based, human. Particulars: KG-1 AML cells.
The target in a further data set is T4, MCL-1 (Homo sapiens, UniProt Q07820).
T4 construct: endogenous protein in lysates from the A375P melanoma cell line; endogenous in cells; host or cells: A375P melanoma cells (lysate)
Kind of data set: MCL-1 engagement in A375P lysates (streptavidin pulldown, MCL-1 western). Particulars: biotinylated SAHB. The class given is binding. The protocol:
(§3) Cultured A375P and U937 cells were trypsinized or harvested, respectively, washed with PBS, and lysed by incubating with 1% CHAPS lysis buffer (1% CHAPS, 150 mM NaCl, 50 mM Tris pH 7.4, 100 μM DTT). The protein concentrations of the soluble fraction were measured using a BCA kit according to the manufacturer's instructions (Thermo Scientific). Lysate samples (1 mg) were incubated with vehicle or C-terminally biotinylated NOXA SAHBs (30 μM) overnight in 1% CHAPS lysis buffer at 4° C. Biotin capture was accomplished by incubating the mixture with high-capacity SA agarose (Thermo Scientific) for 2 hours at 4° C., followed by centrifugation and washing the pelleted beads three times with lysis buffer (1 mL). Bead-bound proteins were eluted by boiling in 10% SDS containing 10 mg/mL biotin for 10 minutes and then subjected to electrophoresis and western blotting using BFL-1 (Abcam, #125259) and MCL-1 (Rockland #600-401-394S) antibodies.

A further data set deals with T5, native BFL-1 (Homo sapiens, UniProt Q16548).
T5 construct: endogenous in cells; host or cells: A375P melanoma cells (A10); U937 AML cells (A12), lysates
T5 sequence (Q16548 1-175): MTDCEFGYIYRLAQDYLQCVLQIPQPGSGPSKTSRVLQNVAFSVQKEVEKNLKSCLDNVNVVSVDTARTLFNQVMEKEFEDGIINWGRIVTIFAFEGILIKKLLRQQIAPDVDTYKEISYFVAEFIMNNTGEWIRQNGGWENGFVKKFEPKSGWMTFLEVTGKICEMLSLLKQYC
Kind of data set: BFL-1 targeting in A375P lysates (streptavidin pulldown, BFL-1 western). The class given is binding. As to conditions: biotinylated SAHB, compared to acetylated construct. On the procedure:
as §3

“Also recorded” adds a separate entry of the source.

T1 sequence (Q07820 whole entry): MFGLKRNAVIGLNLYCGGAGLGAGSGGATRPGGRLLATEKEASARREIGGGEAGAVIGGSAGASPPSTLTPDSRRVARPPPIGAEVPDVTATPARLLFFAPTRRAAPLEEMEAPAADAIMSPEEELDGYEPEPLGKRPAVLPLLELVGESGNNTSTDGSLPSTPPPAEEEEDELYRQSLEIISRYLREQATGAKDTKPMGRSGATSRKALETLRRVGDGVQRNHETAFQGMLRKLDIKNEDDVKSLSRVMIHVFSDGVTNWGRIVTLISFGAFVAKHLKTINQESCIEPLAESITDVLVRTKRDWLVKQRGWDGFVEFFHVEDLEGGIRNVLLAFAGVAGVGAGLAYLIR
T3 sequence (Q07817 1-212, stated change not applied): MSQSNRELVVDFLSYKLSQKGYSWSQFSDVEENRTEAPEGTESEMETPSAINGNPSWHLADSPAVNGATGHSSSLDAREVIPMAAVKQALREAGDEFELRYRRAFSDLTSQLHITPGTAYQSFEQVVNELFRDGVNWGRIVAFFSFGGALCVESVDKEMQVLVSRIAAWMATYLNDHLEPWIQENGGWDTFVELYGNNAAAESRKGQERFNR
Experimental for KG-1 cells: U937, MV4;11, OCI-AML-3, Jurkat, and KG-1 cells cultured in RPMI containing 10% FBS and penicillin-streptomycin were plated in 96-well plates (5×10^3 cells per well) and, after overnight incubation, treated with the indicated concentrations of D-NA-NOXA SAHB and/or AZD0156, Ku-60019, Ku-55933, AZD7762, olaparib, or S63845 (all from Selleck Chemicals) in RPMI supplemented with 5% FBS for the indicated durations. Cell viability and caspase-3/7 activation was measured using CellTiter-Glo and Caspase-Glo 3/7 chemiluminescence reagents (Promega), respectively, and luminescence was detected by a Spectramax M5 microplate reader. Synergy of drug interactions was calculated using the CalcuSyn software (Biosoft).

For the substance JAT8LREFGDXLNFRQ [D-NA-NOXA-15 R31E], in the data set with FLAG-MCL-1 / tBID, the “dissociation of FLAG-MCL-1/tBID interaction” value is on record as “neither D-NA- nor Ac-NOXA15 R31E is able to dissociate the interaction”. Moreover, the “competition for FITC-BID BH3 binding to BFL-1ΔC C4S/C19S/C55S” value in data set [1] is recorded as “neither D-NA- nor Ac-NOXA15 R31E competes”. Besides, in the data set with BCL-XLΔC / FITC-BID BH3, the “competition for FITC-BID BH3 binding to BCL-XLΔC” value was “neither Ac- nor D-NA-NOXA-15 R31E is able to compete”. In addition, the “cytotoxicity, single agent” value is on record as “essentially insensitive” in the data set with MV4;11 cells, “responsive” in the data set with U937 cells [2] (listed as D-NA-NOXA SAHB-15 R31E), “selective cytotoxicity” in the data set with U937 cells [2] (listed as NOXA-15 R31E SAHB) and “dose-responsive cytotoxicity” in the data set with KG-1 cells. In the data set on U937 cells [3], the “LDH release (non-specific cell membrane-lytic activity)” value was “no LDH release; also recorded: no non-specific cell membrane-lytic activity”. Further, the MCL-1 engagement entry with MCL-1 is “approximately equivalent binding to MCL-1”. Besides, the “targeting of native BFL-1” value with native BFL-1 was “enhanced targeting of native BFL-1”.
